Data published in US20190359937A1 (INNOVATIVE TARGETING SOLUTIONS, published 2019).

Tests used:
[1] = target: T1, HER2 (as used for the affinity measurement) (UniProt P04626 23-652, limits assumed); test: affinity of the antibody for HER2; estimated to be several hundred nM, method not stated for this antibody
[2] = target: T1, HER2 (as used for the affinity …); test: Biacore, antibody against HER2; format not stated

| Kd [1] | Kd [2] | Binder |
| --- | --- | --- |
| > 200 nM | – | anti-HER2 antibody ITS001-V928 (antibody, V domains shown, The KD is told of the antibody before it was made into the IgG-TNFR1 receptor; also called ITS001-V928-based antibody; antibody of C644) VH: QVQLVQSGAEVKKPGASVKVSCKASGYTFTSYGISWVRQAPGQGLEWMGWISAYNGNTNYAQKLQGRVTMTTDTSTSTAYMELRSLRSDDTAVYYCARELAYDAFDIWGQGTMVTVSS VL: not shown |
| – | 107 nM | anti-HER2 antibody ITS001-V737 (antibody, V domains shown, The KD by Biacore is told of the antibody before it was made into the IgG-TNFR1 receptor; also called ITS001-V737-based antibody; antibody of C645) VH: QVQLVQSGAEVKKPGASVKVSCKASGYTFTSYGISWVRQAPGQGLEWMGWISAYNGNTNYAQKLQGRVTMTTDTSTSTAYMELRSLRSDDTAVYYCARELAYDAFDIWGQGTMVTVSS VL: DIQMTQSPSSLSASVGDRVTITCRASQSISSYLNWYQQKPGKAPKLLIYAASSQAGLSLQSGVPSRFSGSGSGTDFTLTISSLQPEDFATYYCQQSYSTPLTFGGGTKVEIKR |
